For assay [1], the target named is human μ-opioid receptor (μOR) M153F, with HA signal sequence at the N terminus and LgBiT at the C terminus (modified pfastbac1) (human) (UniProt P35372). Nature of the assay: split reporter (BiFC, NanoBiT); NanoBiT on Sf9 membranes co-expressing μOR-LgBiT, Gαi1, Gβ1-SmBiT and Gγ2, in PBS pH 7.4; dose-response of fentanyl, 15 min at room temperature, luminescence; normalized to DAMGO.

The target of assay [2] is human μ-opioid receptor (μOR) M153V, with HA signal sequence at the N terminus and LgBiT at the C terminus (modified pfastbac1) (human) (UniProt P35372). The assay is described as above.
In assay [3] the target is human μ-opioid receptor (μOR) M153L, with HA signal sequence at the N terminus and LgBiT at the C terminus (modified pfastbac1) (human) (UniProt P35372). The description is as above.
The target in assay [4] is human μ-opioid receptor (μOR) M153A, with HA signal sequence at the N terminus and LgBiT at the C terminus (modified pfastbac1) (human) (UniProt P35372). The assay is described as above.
In assay [5] the target is human μ-opioid receptor (μOR) M153I, with HA signal sequence at the N terminus and LgBiT at the C terminus (modified pfastbac1) (human) (UniProt P35372). Described as above.
The target of assay [6] is human μ-opioid receptor (μOR) M153F, with HA signal sequence at the N terminus and LgBiT at the C terminus (modified pfastbac1) (human) (UniProt P35372). Nature of the assay: split reporter (BiFC, NanoBiT); NanoBiT on Sf9 membranes co-expressing μOR-LgBiT, Gαi1, Gβ1-SmBiT and Gγ2, in PBS pH 7.4; dose-response of DAMGO, 15 min at room temperature, luminescence; normalized to DAMGO.

Assay [7] has as its target human μ-opioid receptor (μOR) M153L, with HA signal sequence at the N terminus and LgBiT at the C terminus (modified pfastbac1) (human) (UniProt P35372). The assay is described as above.
For assay [8], the target named is human μ-opioid receptor (μOR) M153I, with HA signal sequence at the N terminus and LgBiT at the C terminus (modified pfastbac1) (human) (UniProt P35372). The description is as above.

Gi protein complex (Gαi1, Gβ1 with SmBiT at the C terminus, Gγ2), sequence (P63096 whole entry): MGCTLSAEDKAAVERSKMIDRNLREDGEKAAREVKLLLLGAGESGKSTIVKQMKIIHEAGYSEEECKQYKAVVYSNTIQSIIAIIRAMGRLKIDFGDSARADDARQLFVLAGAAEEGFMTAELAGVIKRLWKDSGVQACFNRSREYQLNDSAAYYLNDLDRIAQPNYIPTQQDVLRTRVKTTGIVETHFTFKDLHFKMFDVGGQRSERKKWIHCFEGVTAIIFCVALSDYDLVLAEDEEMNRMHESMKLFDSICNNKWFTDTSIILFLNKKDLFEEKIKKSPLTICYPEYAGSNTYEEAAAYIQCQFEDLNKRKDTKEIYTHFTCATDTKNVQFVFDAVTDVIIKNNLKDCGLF
Gi protein complex (Gαi1, Gβ1 with SmBiT at the C terminus, Gγ2), sequence (P62873 whole entry): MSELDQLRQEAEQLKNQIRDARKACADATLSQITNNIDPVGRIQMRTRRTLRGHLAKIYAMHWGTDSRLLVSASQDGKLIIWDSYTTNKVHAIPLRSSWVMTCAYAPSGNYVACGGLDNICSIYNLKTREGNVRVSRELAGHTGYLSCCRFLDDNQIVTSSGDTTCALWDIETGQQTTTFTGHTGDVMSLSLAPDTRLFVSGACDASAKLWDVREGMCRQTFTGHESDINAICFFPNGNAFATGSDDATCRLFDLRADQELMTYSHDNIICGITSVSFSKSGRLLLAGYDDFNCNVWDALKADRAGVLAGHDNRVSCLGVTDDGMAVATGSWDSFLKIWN
Gi protein complex (Gαi1, Gβ1 with SmBiT at the C terminus, Gγ2), sequence (P59768 whole entry): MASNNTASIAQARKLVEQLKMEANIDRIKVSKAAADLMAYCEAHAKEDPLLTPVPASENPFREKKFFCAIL

On to “Gi protein complex (Gαi1, Gβ1 with SmBiT at the C terminus, Gγ2) (from UniProt P63096 1-354; P62873 1-340; P59768 1-71)”, for which the maximal Gi coupling (normalized to DAMGO) is less than 55% in assay [1]; less than 55% in assay [2]; less than 55% in assay [3]; less than 55% in assay [4]; less than 55% in assay [5]; 100% in assay [6]. The maximal Gi coupling (normalized to DAMGO) in assay [7] and in assay [8] was 100% each time.

For the origin of these results see paper PMC7176292.
